Measured values reported in patent publication US8198236B2, “Methods and compositions for the treatment of cancer” (Washington University, priority 2007, dated 2012).

Assays:
LRP6 [1] = molecular target: T1, LRP6 (Homo sapiens, UniProt O75581); assay: Competition for 125I-Mesd binding to cell surface LRP6
T1 construct: expressed in transfected cells; host or cells: human HT1080 cells, retroviral vector pLNCX2
Procedure: (§1) To examine whether Mesd binds with high affinity to most members of the LDLR family at the cell surface, we performed cell surface ligand binding experiments with cells stably transduced with LRP6 cDNA. Human HT1080 cells, which express undetectable levels of LRP6, were transduced with a viral vector alone (pLNCX2) or with vector containing LRP6 cDNA (Li, Y., Oncogene 23: 9129-9135, 2004) and used for ^125I-Mesd binding (FIG. 1A). ^125I-Mesd (5 nM) reached maximal binding after 2 hours incubation at 4° C. with LRP6-expressing HT1080 cells (FIG. 1A).
(§2) Cells (2×10^5) were seeded into 12-well dishes 1 day prior to assay. Ligand-binding buffer (minimal Eagle's medium containing 0.6% BSA with a different concentration of radioligand, 0.6 ml/well) was added to cell monolayers, in the absence or the presence of 500 nM unlabeled RAP or 500 nM unlabeled Mesd, followed with incubation for 0-4 hours at 4° C. Thereafter, overlying buffer containing unbound ligand was removed, and cell monolayers were washed and lysed in low-SDS lysis buffer (62.5 mM Tris-HCl pH 6.8, 0.2% SDS, 10% v/glycerol) and counted.
We performed binding of 5 nM ^125I-Mesd (5 nM) to cell surface LRP6 in the presence of various concentrations of excess unlabeled RAP or 500 nM unlabeled Mesd (FIG. 8B). RAP inhibited ^125I-Mesd binding in a dose-dependent manner with ˜60% inhibition achieved with 500 nM RAP, whereas the same concentration of unlabeled Mesd inhibited >90% of ^125I-Mesd binding (FIG. 8B). […] The lower affinity of RAP to cell surface LRP6 may also contribute to its lower efficiency in inhibition of Mesd binding.
In FIG. 8A, binding of ^125I-RAP (5 nM) to LRP6-transduced HT1080 cells and the control cells was carried out for 4 hours at 4° C. in the absence (total) or presence of 500 nM RAP, or 500 nM Mesd. In FIG. 8B, binding of^125I-Mesd (5 nM) to LRP6-transduced HT1080 cells was carried out for 2 hours at 4° C. in the absence (total) or presence of various concentrations of RAP or 500 nM Mesd. (C) LRP6-mediated ^125I-Mesd (5 nM) degradation was carried out for 4 hours at 37° C. in the absence or presence of 500 nM Mesd or 500 nM RAP. Values are the means of triple determinations with the s.d. indicated by error bars.
(§3) In order to investigate the binding of Mesd polypeptide and an Mesd oligopeptide to either LRP5 or LRP6, binding assays were performed using ^125I-Mesd or ^125I-DKK1 (FIG. 10).

LRP5 = LRP5 (Homo sapiens, UniProt O75197); assay: 125I-DKK1 binding to LRP5; settings: FIG. 10B
Chain of LRP5 (O75197 32-1615): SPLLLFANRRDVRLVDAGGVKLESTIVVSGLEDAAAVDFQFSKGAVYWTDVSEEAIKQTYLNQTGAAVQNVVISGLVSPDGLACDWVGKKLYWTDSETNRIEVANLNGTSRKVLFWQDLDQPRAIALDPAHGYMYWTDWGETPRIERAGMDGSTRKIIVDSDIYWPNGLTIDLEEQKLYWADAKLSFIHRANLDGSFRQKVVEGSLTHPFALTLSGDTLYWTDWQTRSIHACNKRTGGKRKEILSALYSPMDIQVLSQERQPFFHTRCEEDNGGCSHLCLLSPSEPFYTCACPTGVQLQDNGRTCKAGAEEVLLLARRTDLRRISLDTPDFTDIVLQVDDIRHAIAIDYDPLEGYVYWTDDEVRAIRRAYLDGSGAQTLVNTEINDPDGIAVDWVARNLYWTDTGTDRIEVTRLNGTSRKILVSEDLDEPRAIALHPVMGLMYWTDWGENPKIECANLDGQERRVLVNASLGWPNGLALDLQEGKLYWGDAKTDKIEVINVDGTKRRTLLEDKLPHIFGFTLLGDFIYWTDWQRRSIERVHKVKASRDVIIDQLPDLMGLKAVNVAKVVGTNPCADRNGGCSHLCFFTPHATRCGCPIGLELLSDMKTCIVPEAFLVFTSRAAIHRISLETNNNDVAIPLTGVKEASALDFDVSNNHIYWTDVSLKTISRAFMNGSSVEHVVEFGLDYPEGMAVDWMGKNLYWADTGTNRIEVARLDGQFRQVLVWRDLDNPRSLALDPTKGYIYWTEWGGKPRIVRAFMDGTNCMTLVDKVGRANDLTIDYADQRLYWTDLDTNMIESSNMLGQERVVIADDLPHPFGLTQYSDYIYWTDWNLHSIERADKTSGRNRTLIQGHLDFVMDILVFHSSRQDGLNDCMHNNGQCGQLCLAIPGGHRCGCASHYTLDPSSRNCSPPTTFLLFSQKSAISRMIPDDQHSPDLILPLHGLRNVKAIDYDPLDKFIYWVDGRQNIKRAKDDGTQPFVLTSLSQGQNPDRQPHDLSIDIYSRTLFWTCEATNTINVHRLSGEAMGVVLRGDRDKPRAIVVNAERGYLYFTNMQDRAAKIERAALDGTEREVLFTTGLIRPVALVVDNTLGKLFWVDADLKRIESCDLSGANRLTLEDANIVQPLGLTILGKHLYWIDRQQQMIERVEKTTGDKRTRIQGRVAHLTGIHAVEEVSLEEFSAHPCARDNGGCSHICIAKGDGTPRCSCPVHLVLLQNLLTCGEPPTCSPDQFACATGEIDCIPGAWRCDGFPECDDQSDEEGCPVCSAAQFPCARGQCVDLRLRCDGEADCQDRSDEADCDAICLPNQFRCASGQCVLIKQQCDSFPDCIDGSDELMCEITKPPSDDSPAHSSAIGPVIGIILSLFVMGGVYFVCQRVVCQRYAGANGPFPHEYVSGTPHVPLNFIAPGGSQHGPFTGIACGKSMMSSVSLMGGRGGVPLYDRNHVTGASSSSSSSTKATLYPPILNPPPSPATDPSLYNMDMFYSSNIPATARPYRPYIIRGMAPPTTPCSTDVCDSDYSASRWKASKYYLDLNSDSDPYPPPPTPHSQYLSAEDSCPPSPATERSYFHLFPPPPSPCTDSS
Procedure: as §3

Wnt signaling = assay: TCF/LEF-luc reporter assay in Wnt-3A-treated HEK293 cells; type: cell-based; settings: Wnt3A conditioned medium plus 500 nM, 16 hours at 37° C.
Procedure: HEK293 cells were plated into six-well plates. For each well, 0.1 μg of the TOP-FLASHTCF luciferase construct (Upstate Biotechnology) was cotransfected with 0.8 μg Mesd-expressing vector, 0.8 μg Mesd mutant-expressing vector, or empty vector. A β-galactosidase-expressing vector (Promega, Madison, Wis.) was included as an internal control for transfection efficiency. After 48 hours, cells were lysed and both luciferase and β-galactosidase activities were determined with enzyme assay kits (Promega). The luciferase activity was determined with a luminometer using the Dual Luciferase Assay system (Promega). Luciferase activity was normalized to the activity of the β-galactosidase.
In these experiments, transfected cells were treated without Wnt-3A or with Wnt-3A plus the indicated inhibitors (Mesd and/or Dkk1) for 16 hours at 37° C. Wnt signaling was measured by quantifying the luciferase activity using a live cell imaging system.

LRP6 [2] = molecular target: T1, LRP6; assay: 125I-Mesd cell surface binding to LRP6-transduced HT1080 cells; settings: LRP6-transduced HT1080 cells
Procedure: as §1
(A) Time course of ^125I-Mesd (5 nM) binding to LRP6-transduced HT1080 cells and the control cells. Assay was carried out for the indicated periods at 4° C. in the absence (total) or presence of 500 nM Mesd (non-specific). (B) Saturation binding of ^125I-Mesd to LRP6-transduced HT1080 cells and the control cells. Assay was carried out at indicated concentrations for 3 hours at 4° C. in the absence (total) or presence (non-specific) of 500 nM Mesd. (C) Scatchard plots of data in B. All values are the average of triple determinations with the s.d. indicated by error bars.
as §2
To analyze the Mesd sequences that are required for Mesd to bind to mature LRP6 at the cell surface with high affinity, sequences were compared between mouse Mesd and its homologs from different species. […] We thus generated two truncated Mesd mutants lacking either the N-terminal region, MESD (12-195), or both the N-terminal and C-terminal regions, Mesd (12-155) (FIG. 3A). The ability of these mutants to bind to cell surface LRP6 was then assessed.
In this example, a truncated Mesd mutant containing the last 45 amino acids of C-terminal region was generated (FIG. 3A) and its binding affinity for LRP6 was then analyzed. […] (A) Binding analyses of ^125I-Mesd and its mutant Mesd (150-195) (5 nM) to LRP6-transduced HT1080 cells and control cells. (B) Binding analyses of ^125I-Mesd and its mutant Mesd (150-195) (5 nM) to LRP6-transduced HT1080 cells. Assays were carried out for 3 hours at 4° C. in the absence or presence of 500 nM Mesd or its mutant. Values are the means of triple determinations with the s.d. indicated by error bars.
LRP6-mediated Mesd uptake and degradation was investigated in the experiments illustrated in FIG. 7. (A) LRP6-mediated ^125I-Mesd (5 nM) degradation in LRP6-transduced HT1080 cells and control cells was carried out for 4 hours at 37° C. in the absence or presence of 500 nM Mesd. (B) ^125I-Mesd (5 nM) binding to LRP6-transduced HT1080 cells and the control cells was carried out for 4 hours at 4° C. in the absence or presence of 500 nM Mesd. Values are the means of triple determinations with the s.d. indicated by error bars.

LRP6 [3] = molecular target: T1, LRP6; assay: LRP6-mediated 125I-Mesd degradation in LRP6-transduced HT1080 cells; type: cell-based; settings: 500 nM unlabeled competitor, 4 hours at 37° C.
Procedure: Ligand degradation was performed using the methods as described in Li, Y., et al., J. Biol. Chem. 275: 17187-17194, 2000. Briefly, 2×10^5 cells were seeded into 12-well dishes 1 day prior to assay. Pre-warmed assay buffer (minimal Eagle's medium containing 0.6% BSA with radioligand, 0.6 ml/well) was added to cell monolayers in the absence or the presence of unlabeled 500 nM RAP or 500 nM Mesd, followed by incubation for 4 hours at 37° C. Thereafter, the medium overlying the cell monolayers was removed and proteins were precipitated by addition of BSA to 10 mg/ml and trichloroacetic acid to 20%. Degradation of radioligand was defined as the appearance of radioactive fragments in the overlying medium that were soluble in 20% trichloroacetic acid. Kinetic analysis of endocytosis LRP6-transduced HT1080 cells were plated in 12-well plates at a density of 2×10^5 cells/well and used after overnight culture. Cells were rinsed twice in ice-cold assay buffer (minimal Eagle's medium containing 0.6% BSA), and ^125I-anti-HA IgG was added at 1 nM final concentration in cold assay buffer (0.5 ml/well). The binding of ^125I-anti-HA IgG was carried out at 4° C. for 90 minutes with gentle rocking Unbound ^125I-anti-HA IgG was removed by washing cell monolayers three times with cold assay buffer. Ice-cold stop/strip solution (0.2 M acetic acid, pH 2.6, 0.1 M NaCl) was added to one set of plates without warming up and kept on ice. The remaining plates were then placed in a 37° C. water bath and 0.5 ml assay buffer prewarmed to 37° C. was quickly added to cell monolayers to initiate internalization. After each time point, the plates were quickly placed on ice and the assay buffer was replaced with cold stop/strip solution. ^125I-anti-HA IgG that remained on the cell surface was stripped by incubation of cell monolayers with cold stop/strip solution for a total of 20 minutes (0.75 ml for 10 minutes, twice) and counted. Cell monolayers were then solubilized with low-SDS lysis buffer and counted. […] The fraction of internalized ^125I-anti-HA IgG after each time point was calculated and plotted. […]

LRP6 [4] = molecular target: T1, LRP6; assay: 125I-DKK1 binding to LRP6; settings: 500 nM unlabeled, 125I-DKK1 5 nM, 3 hours at 4° C.
Procedure: as §2
RAP is a receptor antagonist for members of the LDLR family, and is able to inhibit the binding of most known ligands of the LDLR family members. DKK1 is an LRP6-specific ligand and antagonist. […] In these experiments, Serum-free conditioned medium was harvested from HEK293 cells transiently transfected with cDNA for human Myc-DKK1 and allowed to bind to LRP6-transduced HT1080 cells (B,C) and control cells (A) in the absence (A,B) or presence (C) of 1 μM Mesd. Cell-surface-bound Myc-tagged DKK proteins were fixed and detected by immunofluorescence staining with anti-Myc antibody. (D) DKK1 binding to cell surface LRP6 is inhibited by Mesd. Binding of 125I-DKK1 (5 nM) to LRP6-transduced HT1080 cells or the control cells was carried out for 3 hours at 4° C. in the absence (total) or presence of 500 nM RAP or 500 nM Mesd. […]

LRP6 [5] = molecular target: T1, LRP6; assay: 125I-RAP binding to LRP6-transduced HT1080 cells; settings: 125I-RAP 5 nM, 4 hours at 4° C.
Procedure: as §2
Receptor-associated protein (RAP) binds with high affinity to LRP, megalin, VLDLR and apoER2, and with a lower affinity to the LDLR (Bu, G., Int. Rev. Cytol. 209, 79-116. 2001). To determine whether RAP and Mesd bind to identical, overlapping, or different sites on the receptors, we performed binding and competition analysis of these two chaperones with HT1080 cells stably expressing LRP6.
In FIG. 8A, binding of ^125I-RAP (5 nM) to LRP6-transduced HT1080 cells and the control cells was carried out for 4 hours at 4° C. in the absence (total) or presence of 500 nM RAP, or 500 nM Mesd. In FIG. 8B, binding of^125I-Mesd (5 nM) to LRP6-transduced HT1080 cells was carried out for 2 hours at 4° C. in the absence (total) or presence of various concentrations of RAP or 500 nM Mesd. […]

LRP6 [6] = molecular target: T1, LRP6; assay: LRP6-mediated 125I-DKK1 degradation in LRP6-transduced HT1080 cells; type: cell-based; settings: 500 nM unlabeled, 4 hours at 37° C.
Procedure: Ligand degradation was performed using the methods as described in Li, Y., et al., J. Biol. Chem. 275: 17187-17194, 2000. Briefly, 2×10^5 cells were seeded into 12-well dishes 1 day prior to assay. Pre-warmed assay buffer (minimal Eagle's medium containing 0.6% BSA with radioligand, 0.6 ml/well) was added to cell monolayers in the absence or the presence of unlabeled 500 nM RAP or 500 nM Mesd, followed by incubation for 4 hours at 37° C. Thereafter, the medium overlying the cell monolayers was removed and proteins were precipitated by addition of BSA to 10 mg/ml and trichloroacetic acid to 20%. […] After each time point, the plates were quickly placed on ice and the assay buffer was replaced with cold stop/strip solution. ^125I-anti-HA IgG that remained on the cell surface was stripped by incubation of cell monolayers with cold stop/strip solution for a total of 20 minutes (0.75 ml for 10 minutes, twice) and counted. Cell monolayers were then solubilized with low-SDS lysis buffer and counted. […] The fraction of internalized ^125I-anti-HA IgG after each time point was calculated and plotted.
RAP is a receptor antagonist for members of the LDLR family, and is able to inhibit the binding of most known ligands of the LDLR family members. […] Cell-surface-bound Myc-tagged DKK proteins were fixed and detected by immunofluorescence staining with anti-Myc antibody. […]

T1 sequence (O75581 20-1613): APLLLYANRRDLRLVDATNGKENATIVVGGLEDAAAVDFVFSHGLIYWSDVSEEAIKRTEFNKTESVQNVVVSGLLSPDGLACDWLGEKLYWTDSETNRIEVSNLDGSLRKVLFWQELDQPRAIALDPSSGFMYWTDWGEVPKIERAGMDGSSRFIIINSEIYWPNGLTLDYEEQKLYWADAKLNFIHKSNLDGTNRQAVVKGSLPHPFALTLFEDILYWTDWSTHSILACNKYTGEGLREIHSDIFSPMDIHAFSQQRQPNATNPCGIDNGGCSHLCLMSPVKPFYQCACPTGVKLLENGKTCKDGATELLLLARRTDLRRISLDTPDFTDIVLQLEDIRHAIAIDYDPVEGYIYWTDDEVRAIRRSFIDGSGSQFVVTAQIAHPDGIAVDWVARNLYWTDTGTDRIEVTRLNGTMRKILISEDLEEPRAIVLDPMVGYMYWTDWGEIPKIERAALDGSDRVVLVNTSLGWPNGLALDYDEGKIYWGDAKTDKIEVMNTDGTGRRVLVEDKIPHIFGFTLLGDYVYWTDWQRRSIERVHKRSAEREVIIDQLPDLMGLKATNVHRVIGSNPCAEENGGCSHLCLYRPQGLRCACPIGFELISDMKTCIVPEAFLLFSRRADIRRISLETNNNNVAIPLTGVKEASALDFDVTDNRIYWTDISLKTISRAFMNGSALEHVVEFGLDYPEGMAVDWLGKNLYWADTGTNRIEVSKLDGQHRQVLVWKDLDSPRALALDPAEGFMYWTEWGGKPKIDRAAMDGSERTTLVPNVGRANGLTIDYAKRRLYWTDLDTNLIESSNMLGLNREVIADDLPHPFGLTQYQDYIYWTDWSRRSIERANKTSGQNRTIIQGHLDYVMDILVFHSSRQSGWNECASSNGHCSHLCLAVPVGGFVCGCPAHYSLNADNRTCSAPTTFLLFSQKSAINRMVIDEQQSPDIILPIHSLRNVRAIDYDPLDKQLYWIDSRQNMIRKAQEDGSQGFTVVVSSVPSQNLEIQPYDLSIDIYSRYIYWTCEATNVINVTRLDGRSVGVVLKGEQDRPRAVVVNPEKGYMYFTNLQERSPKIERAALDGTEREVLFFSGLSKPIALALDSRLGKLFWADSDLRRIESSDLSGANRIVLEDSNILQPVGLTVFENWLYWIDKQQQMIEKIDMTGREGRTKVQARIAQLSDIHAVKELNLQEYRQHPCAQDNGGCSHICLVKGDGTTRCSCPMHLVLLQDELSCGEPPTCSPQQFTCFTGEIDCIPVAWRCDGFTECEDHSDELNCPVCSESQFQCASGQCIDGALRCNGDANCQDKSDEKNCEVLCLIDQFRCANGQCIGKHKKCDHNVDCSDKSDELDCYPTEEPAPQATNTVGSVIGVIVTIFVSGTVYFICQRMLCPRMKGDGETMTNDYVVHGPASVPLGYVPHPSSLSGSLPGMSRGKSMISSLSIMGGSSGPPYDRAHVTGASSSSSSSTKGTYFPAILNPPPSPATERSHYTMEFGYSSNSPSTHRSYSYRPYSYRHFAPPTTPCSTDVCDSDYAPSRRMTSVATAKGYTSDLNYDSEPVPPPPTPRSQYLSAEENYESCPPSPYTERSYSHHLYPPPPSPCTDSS

Question: Which results are given for “KGGGSKEKNKTKPEKAKKKEGDPKPRASKEDNRAGSR [SEQ ID NO: 20]”?
Answer: Reduction of binding of 125I-Mesd to LRP6 (LRP6 [1]; FIG. 10C, compared with LRP5): even greater reduction; Reduction in binding of 125I-DKK1 to LRP5 (LRP5): small but significant reduction

Question: How did the “Inhibition of Wnt signaling (luciferase activity)” value (Wnt signaling) turn out when “KGGGSKEKNKTKPEKAKKKEGDRKPRASKEDNRAGSR [Mesd WT peptide]” was run?
Answer: moderately inhibit

Question: For “QMYPGKGGGSKEKNKTKPEKAKKKEGDPKPRASKEDNRAGSRREDL [Mesd (150-195)]”, which “Binding of truncated Mesd mutants to cell surface LRP6” value (“Binding of truncated Mesd mutants” below) (LRP6 [2]) is on record?
Answer: necessary and sufficient for LRP6 binding

Question: And the “Inhibition of Wnt signaling (luciferase activity)” value (Wnt signaling)?
Answer: moderately inhibit

Question: What does the source list for “RAP: Human recombinant 39 kDa receptor-associated protein, expressed in a GST expression vector [reference compound]”?
Answer: Inhibition of 125I-Mesd binding to cell surface LRP6 (LRP6 [1]; 500 nM unlabeled competitor, 125I-Mesd 5 nM, 2 hours at 4° C.): ~60%; Inhibition of 125I-Mesd degradation (LRP6 [3]): only partially; Effect on increased 125I-DKK1 binding of LRP6-expressing HT1080 cells (LRP6 [4]): not; Increase of RAP binding in LRP6 expressing HT1080 cells compared to control cells (LRP6 [5]): ~20%; Effect on increased 125I-DKK1 degradation of LRP6-expressing HT1080 cells (LRP6 [6]): not

B1: MESD (12-195): Truncated mouse Mesd mutant lacking the N-terminal region (protein)
chain: RKKKDIRDYNDADMARLLEQWEKDDDIEEGDLPEHKRPSAPIDFSKLDPGKPESILKMTKKGKTLMMFVTVSGNPTEKETEEITSLWQGSLFNANYDVQRFIVGSDRAIFMLRDGSYAWEIKDFLVSQDRCAEVTLEGQMYPGKGGGSKEKNKTKPEKAKKKEGDRKPRASKEDNRAGSRREDL
modifications: left off: small tags and cut ends
notes: Truncated mouse Mesd mutant lacking the N-terminal region
Question: For B1, which “Binding of truncated Mesd mutants” value (LRP6 [2]) is on record?
Answer: no effect on LRP6 binding

B2: Mesd (12-155): Truncated mouse Mesd mutant lacking both the N-terminal and C-terminal regions (protein)
chain: RKKKDIRDYNDADMARLLEQWEKDDDIEEGDLPEHKRPSAPIDFSKLDPGKPESILKMTKKGKTLMMFVTVSGNPTEKETEEITSLWQGSLFNANYDVQRFIVGSDRAIFMLRDGSYAWEIKDFLVSQDRCAEVTLEGQMYPGK
modifications: left off: small tags and cut ends
notes: Truncated mouse Mesd mutant lacking both the N-terminal and C-terminal regions
Question: B2 was tested. Which “Binding of truncated Mesd mutants” value (LRP6 [2]) did it give?
Answer: completely abolished LRP6 binding
